# Measurements reported in patent CN115850461A (INST MICROBIOLOGY CAS, dated 2023).
# B1: 沙贝病毒广谱人源中和抗体74 (antibody, V domains shown)
# VH: QVQLVQSGAQLKKPGESLKISCKGSGYNFSRYWIAWVRHMPGKGLEVMGIIYPDDSDTRYSPSVRGQVTISADKSTSIVYLQWSSLKASDTGIYYCARFGAGMTGMPRYFDTTRWFDPWGQGTQVTVSS
# VL: QSVLTQPPSVSGAPGQRVTISCLGGSSNIGAGYDVHWYQHLPGAAPKLLISGNSNRPSGVPARFSGSKSGTSASLAITGLQAEDEADYYCQSYDNDLSQVFGGGTKLTVLG
# Assays:
# Experiment in all cases: cell-based or functional assay
# [1] = target: SARS-CoV-2 Delta 假病毒 S蛋白 (SARS-CoV-2 (Delta))
# [2] = target: SARS-CoV-2 Omicron BA.2.75 假病毒 S蛋白 (SARS-CoV-2 (Omicron BA.2.75))
# [3] = target: SARS-CoV-2 Omicron BA.1 假病毒 S蛋白 (SARS-CoV-2 (Omicron BA.1))
# [4] = target: SARS-CoV-2 Omicron BA.1.1 假病毒 S蛋白 (SARS-CoV-2 (Omicron BA.1.1))
# [5] = target: SARS-CoV-2 Alpha 假病毒 S蛋白 (SARS-CoV-2 (Alpha))
# [6] = target: SARS-CoV-2 Beta 假病毒 S蛋白 (SARS-CoV-2 (Beta))
# [7] = target: SARS-CoV-2 Omicron BA.2 假病毒 S蛋白 (SARS-CoV-2 (Omicron BA.2))
# [8] = target: SARS-CoV-2 Omicron BA.4/5 假病毒 S蛋白 (SARS-CoV-2 (Omicron BA.4/5))
binder,measurement,setting,value
B1,"IC50, 假病毒中和",[1],1.7 µg/mL
same,"IC50, 假病毒中和",[2],1.7 µg/mL
same,"IC50, 假病毒中和",[3],0.91 µg/mL
same,"IC50, 假病毒中和",[4],0.2 µg/mL
same,"IC50, 假病毒中和",[5],0.76 µg/mL
same,"IC50, 假病毒中和",[6],1.62 µg/mL
same,"IC50, 假病毒中和",[7],3.49 µg/mL
same,"IC50, 假病毒中和",[8],2.81 µg/mL
